B1: KRT13 (parent)
chain: TSSASVTTTSNASGRRTSDVRRP

Variants of: B1
Test: protein stability index of a GFP-peptide fusion (GPS, HEK-293T) (PSI 1-6); higher = more stable
Settings: c terminus: native
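Note: lentivirally expressed fusions sorted by FACS into six bins by GFP to DsRed ratio, PSI derived from sequencing read proportions per bin multiplied by bin number.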

| Variant | protein stability index |
| --- | --- |
| TSSASVYTTSNASGRRTSDVRRP [T7Y] | 4.47 |
| TSSASVTATSNASGRRTSDVRRP [T8A] | 3.85 |
| TSSASVTDTSNASGRRTSDVRRP [T8D] | 2.08 |
| TSSASVTETSNASGRRTSDVRRP [T8E] | 3.31 |
| TSSASVTFTSNASGRRTSDVRRP [T8F] | 2.35 |
| TSSASVTGTSNASGRRTSDVRRP [T8G] | 2.26 |
| TSSASVTKTSNASGRRTSDVRRP [T8K] | 3.7 |
| TSSASVTNTSNASGRRTSDVRRP [T8N] | 2.98 |
| TSSASVTPTSNASGRRTSDVRRP [T8P] | 1.64 |
| TSSASVTQTSNASGRRTSDVRRP [T8Q] | 3.25 |
| TSSASVTYTSNASGRRTSDVRRP [T8Y] | 3.44 |
| TSSASVTTCSNASGRRTSDVRRP [T9C] | 1.54 |
| TSSASVTTDSNASGRRTSDVRRP [T9D] | 2.05 |
| TSSASVTTESNASGRRTSDVRRP [T9E] | 2.58 |
| TSSASVTTFSNASGRRTSDVRRP [T9F] | 2.13 |
| TSSASVTTGSNASGRRTSDVRRP [T9G] | 1.73 |
| TSSASVTTHSNASGRRTSDVRRP [T9H] | 3.88 |
| TSSASVTTKSNASGRRTSDVRRP [T9K] | 2.19 |
| TSSASVTTNSNASGRRTSDVRRP [T9N] | 1.81 |
| TSSASVTTPSNASGRRTSDVRRP [T9P] | 1.97 |
| TSSASVTTVSNASGRRTSDVRRP [T9V] | 2.72 |
| TSSASVTTTCNASGRRTSDVRRP [S10C] | 4.58 |
| TSSASVTTTDNASGRRTSDVRRP [S10D] | 2.05 |
| TSSASVTTTENASGRRTSDVRRP [S10E] | 2.03 |
| TSSASVTTTFNASGRRTSDVRRP [S10F] | 2.96 |

| Variant | protein stability index |
| --- | --- |
| TSSASVTTTHNASGRRTSDVRRP [S10H] | 2.48 |
| TSSASVTTTPNASGRRTSDVRRP [S10P] | 2.11 |
| TSSASVTTTQNASGRRTSDVRRP [S10Q] | 2.12 |
| TSSASVTTTTNASGRRTSDVRRP [S10T] | 1.6 |
| TSSASVTTTVNASGRRTSDVRRP [S10V] | 2.99 |
| TSSASVTTTYNASGRRTSDVRRP [S10Y] | 1.98 |
| TSSASVTTTSAASGRRTSDVRRP [N11A] | 3.09 |
| TSSASVTTTSDASGRRTSDVRRP [N11D] | 1.71 |
| TSSASVTTTSEASGRRTSDVRRP [N11E] | 3.41 |
| TSSASVTTTSFASGRRTSDVRRP [N11F] | 2.92 |
| TSSASVTTTSGASGRRTSDVRRP [N11G] | 2.7 |
| TSSASVTTTSHASGRRTSDVRRP [N11H] | 1.8 |
| TSSASVTTTSIASGRRTSDVRRP [N11I] | 1.08 |
| TSSASVTTTSKASGRRTSDVRRP [N11K] | 1.86 |
| TSSASVTTTSLASGRRTSDVRRP [N11L] | 2.98 |
| TSSASVTTTSPASGRRTSDVRRP [N11P] | 1.12 |
| TSSASVTTTSRASGRRTSDVRRP [N11R] | 2.36 |
| TSSASVTTTSTASGRRTSDVRRP [N11T] | 2.74 |
| TSSASVTTTSVASGRRTSDVRRP [N11V] | 1.98 |
| TSSASVTTTSYASGRRTSDVRRP [N11Y] | 3.34 |
| TSSASVTTTSNCSGRRTSDVRRP [A12C] | 3.03 |
| TSSASVTTTSNDSGRRTSDVRRP [A12D] | 3.12 |
| TSSASVTTTSNFSGRRTSDVRRP [A12F] | 3.48 |
| TSSASVTTTSNHSGRRTSDVRRP [A12H] | 3.71 |
| TSSASVTTTSNISGRRTSDVRRP [A12I] | 2.81 |

| Variant | protein stability index |
| --- | --- |
| TSSASVTTTSNLSGRRTSDVRRP [A12L] | 2.53 |
| TSSASVTTTSNPSGRRTSDVRRP [A12P] | 2.25 |
| TSSASVTTTSNSSGRRTSDVRRP [A12S] | 2.19 |
| TSSASVTTTSNAAGRRTSDVRRP [S13A] | 2.97 |
| TSSASVTTTSNADGRRTSDVRRP [S13D] | 1.45 |
| TSSASVTTTSNAEGRRTSDVRRP [S13E] | 1.7 |
| TSSASVTTTSNAGGRRTSDVRRP [S13G] | 1.7 |
| TSSASVTTTSNAKGRRTSDVRRP [S13K] | 1.94 |
| TSSASVTTTSNALGRRTSDVRRP [S13L] | 2.47 |
| TSSASVTTTSNAPGRRTSDVRRP [S13P] | 2.41 |
| TSSASVTTTSNAQGRRTSDVRRP [S13Q] | 1.37 |
| TSSASVTTTSNARGRRTSDVRRP [S13R] | 1.4 |
| TSSASVTTTSNATGRRTSDVRRP [S13T] | 5.7 |
| TSSASVTTTSNAVGRRTSDVRRP [S13V] | 3.04 |
| TSSASVTTTSNAWGRRTSDVRRP [S13W] | 1.04 |
| TSSASVTTTSNASARRTSDVRRP [G14A] | 3.4 |
| TSSASVTTTSNASCRRTSDVRRP [G14C] | 1.75 |
| TSSASVTTTSNASDRRTSDVRRP [G14D] | 1.88 |
| TSSASVTTTSNASERRTSDVRRP [G14E] | 2.97 |
| TSSASVTTTSNASIRRTSDVRRP [G14I] | 2.46 |
| TSSASVTTTSNASLRRTSDVRRP [G14L] | 3.71 |
| TSSASVTTTSNASMRRTSDVRRP [G14M] | 3.29 |
| TSSASVTTTSNASNRRTSDVRRP [G14N] | 2.03 |
| TSSASVTTTSNASPRRTSDVRRP [G14P] | 1.88 |
| TSSASVTTTSNASQRRTSDVRRP [G14Q] | 2.23 |

| Variant | protein stability index |
| --- | --- |
| TSSASVTTTSNASRRRTSDVRRP [G14R] | 2.21 |
| TSSASVTTTSNASSRRTSDVRRP [G14S] | 3.57 |
| TSSASVTTTSNASTRRTSDVRRP [G14T] | 2.3 |
| TSSASVTTTSNASVRRTSDVRRP [G14V] | 2.64 |
| TSSASVTTTSNASYRRTSDVRRP [G14Y] | 2.32 |
| TSSASVTTTSNASGARTSDVRRP [R15A] | 2.17 |
| TSSASVTTTSNASGCRTSDVRRP [R15C] | 2.17 |
| TSSASVTTTSNASGDRTSDVRRP [R15D] | 2.25 |
| TSSASVTTTSNASGERTSDVRRP [R15E] | 2.43 |
| TSSASVTTTSNASGFRTSDVRRP [R15F] | 1.88 |
| TSSASVTTTSNASGHRTSDVRRP [R15H] | 2.61 |
| TSSASVTTTSNASGIRTSDVRRP [R15I] | 2.36 |
| TSSASVTTTSNASGKRTSDVRRP [R15K] | 1.49 |
| TSSASVTTTSNASGLRTSDVRRP [R15L] | 2.37 |
| TSSASVTTTSNASGNRTSDVRRP [R15N] | 2.6 |
| TSSASVTTTSNASGPRTSDVRRP [R15P] | 1.73 |
| TSSASVTTTSNASGQRTSDVRRP [R15Q] | 2.53 |
| TSSASVTTTSNASGTRTSDVRRP [R15T] | 1.94 |
| TSSASVTTTSNASGYRTSDVRRP [R15Y] | 2.03 |
| TSSASVTTTSNASGRATSDVRRP [R16A] | 1.65 |
| TSSASVTTTSNASGRCTSDVRRP [R16C] | 1.27 |
| TSSASVTTTSNASGRDTSDVRRP [R16D] | 1.66 |

— the supplement of paper PMC10567573
